In patent KR20160103767A (dated 2016):

T1: 재조합 인간 TFPI (Recombinant human Tissue Factor Pathway Inhibitor, full-form, Cat.No.TFPI-875H, Creative Biomart) (human, UniProt P10646 29-304)
T1 sequence: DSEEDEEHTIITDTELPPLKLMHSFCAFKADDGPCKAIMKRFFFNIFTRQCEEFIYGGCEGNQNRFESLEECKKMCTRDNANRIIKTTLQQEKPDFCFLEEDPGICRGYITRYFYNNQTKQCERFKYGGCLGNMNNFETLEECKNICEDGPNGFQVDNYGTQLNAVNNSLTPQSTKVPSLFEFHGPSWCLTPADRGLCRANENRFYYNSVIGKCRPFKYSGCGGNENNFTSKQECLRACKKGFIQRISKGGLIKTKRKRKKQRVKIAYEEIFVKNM


Target: T1, 재조합 인간 TFPI (Recombinant human Tissue …)
Test: cell-based or functional assay

FXa activity assay: TFPI inhibition (10nM comparison), relative to positive control (mAb2021) | FXa activity assay: TFPI inhibition at 10nM antibody, relative to positive control | FXa activity assay: TFPI inhibition at 10nM antibody, relative to positive control (mAb2021) | FXa activity assay: TFPI inhibition at 40nM antibody, relative to positive control | TF/FVIIa/FXa complex assay: TFPI inhibition at 50nM antibody, relative to positive control (no antibody, no TFPI) | TF/FVIIa/FXa complex assay: TFPI inhibition at 100nM antibody, relative to positive control (no antibody, no TFPI) | TF/FVIIa/FXa complex assay: TFPI inhibition, relative to positive control (no antibody, no TFPI) | Binder
77% | 72% | 78.4% | 89% | 100% | 100% | 100% | 클론 T417 (anti-TFPI chimeric antibody) (antibody, V domains shown) VH: EVHLVESGGDLVKPGGSLKLSCAASGFTFSSYAMSWVRQTPDKRLEWVATITTGGSYTYYPDSVKGRFTISRDNAKNTLYLQMSSLKSEDTAMYYCARQDGNFLMDYWGQGTTVTVSS VL: not shown
 | ~64% |  | 91% | ~87% | 100% |  | 클론 T308 (anti-TFPI chimeric antibody) (antibody, V domains shown) VH: EVKLVESGGGLVKPGGSLKLSCAASGFTFSNYPMSWVRQTPEKRLEWVATISNSGSYTYYPDSVKGRFTISRDNAKNTLYLQMNSLRSEDTAMYYCARQVYGNYEDFDYWGQGTTLTVSS VL: not shown
